Data from US20250188161A1 (UNIVERSITE CATHOLIQUE DE LOUVAIN, published 2025).
Several values for one entry are separate records, joined by “and”; a condition that tells them apart may be missing. Identical values can stand only once.

Assays:
human latent TGF-β1 = target: T1, human latent TGF-β1 (human, UniProt P01137 30-278; P01137 279-390); assay: SPR (Biacore 3000), human latent TGFβ1 amine-coupled on CM5 (about 500 RU), antibody at 3-100 nM
T1 construct: signal peptide 1-29 left out; also called human latent TGF-β1 (immobilised / coated protein)
T1 sequence (P01137 30-278, chain 1 of 2): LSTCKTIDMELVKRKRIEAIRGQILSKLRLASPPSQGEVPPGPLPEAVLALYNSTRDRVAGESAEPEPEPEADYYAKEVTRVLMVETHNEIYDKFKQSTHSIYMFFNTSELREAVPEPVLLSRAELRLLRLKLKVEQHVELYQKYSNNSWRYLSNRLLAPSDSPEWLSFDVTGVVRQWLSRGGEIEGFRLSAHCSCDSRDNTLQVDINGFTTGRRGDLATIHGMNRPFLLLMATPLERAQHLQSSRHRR
T1 sequence (P01137 279-390, chain 2 of 2): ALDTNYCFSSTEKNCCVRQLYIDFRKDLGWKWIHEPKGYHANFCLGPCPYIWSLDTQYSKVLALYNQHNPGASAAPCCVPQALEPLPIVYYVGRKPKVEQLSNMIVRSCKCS
Method: A CM5 chip was immobilized with approximately 500RU human latent TGFβ1 and mouse latent TGFβ1 in sodium acetate buffer pH4.5 (GE Healthcare, #BR100350) using amine coupling and consuming HBS-EP buffer. The flow was set to 30 μl/min with the “kinject” injection mode and a regeneration injection of 10 mM glycine pH1.5.

[1] = target: T2, human latent TGF-β1 on transfected HEK-293T cells (human, UniProt P01137 30-278; P01137 279-390); assay: cell-based or functional assay
T2 sequence (P01137 30-278, chain 1 of 2): as the sequence (P01137 30-278, chain 1 of 2) above
T2 sequence (P01137 279-390, chain 2 of 2): as the sequence (P01137 279-390, chain 2 of 2) above

mouse latent TGF-β1 = target: T3, mouse latent TGF-β1 (mouse, UniProt P04202 30-278; P04202 279-390); assay: SPR (Biacore 3000), mouse latent TGFβ1 amine-coupled on CM5, antibody injected
T3 construct: signal peptide 1-29 left out; also called murine latent TGF-β1 (immobilised protein)
T3 sequence (P04202 30-278, chain 1 of 2): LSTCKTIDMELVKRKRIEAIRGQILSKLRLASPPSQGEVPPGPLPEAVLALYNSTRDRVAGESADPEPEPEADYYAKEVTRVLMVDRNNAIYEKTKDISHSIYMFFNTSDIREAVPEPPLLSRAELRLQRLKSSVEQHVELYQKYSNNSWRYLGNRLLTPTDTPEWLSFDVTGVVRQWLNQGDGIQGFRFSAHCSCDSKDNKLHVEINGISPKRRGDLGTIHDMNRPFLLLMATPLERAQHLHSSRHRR
T3 sequence (P04202 279-390, chain 2 of 2): as the sequence (P01137 279-390, chain 2 of 2) above, with A75S counted along it

[2] = target: T2, human latent TGF-β1 on transfected …; assay: flow cytometry, HEK-293T cells co-transfected with mGarp and the HA-tagged TGF-β1 construct
[3] = target: T4, mouse latent TGF-β1 on transfected HEK-293T cells (mouse, UniProt P04202 30-278; P04202 279-390); assay: as above
T4 construct: also called mouse TGF-β1; mTGF-β1
T4 sequence (P04202 30-278, chain 1 of 2): as the sequence (P04202 30-278, chain 1 of 2) above
T4 sequence (P04202 279-390, chain 2 of 2): as the sequence (P01137 279-390, chain 2 of 2) above, with A75S counted along it

Kd (human latent TGF-β1): < 0.0262 nM
koff (human latent TGF-β1): < 1e-05 s⁻¹
kon (human latent TGF-β1): 382000 M⁻¹ s⁻¹
EC50, TGF-β1 luciferase reporter assay in HEK-293T cells expressing GARP:TGF-β1 [1]: 240 ng/ml and 1.6 nM
% binding relative to WT TGF-β1 (100 %) [2]: 100%
binding result [3]: no binding
B1: LHT-18 (14E7) (antibody, V domains shown)
VH: QVQLVESGGGLVQPGGSLRLSCAASGFTFSHYWMYWVRQAPGKGLEWVSAINTGGGITYYTDSVKGRFTVSRDNAKNTLYLQMNSLKSEDTAVYYCAKSRYGVVITTTYFGGVDYWGKGTLVTVSS
VL: SSALTQPSAVSVSLGQTARITCQGGNFGSYYASWYQQKPGQAPVQVIYGNSNRPSGIPERFSGSSSGDTATLTISGAQAEDEADYYCLSYESSGYAVFGGGTHLTVL
notes: also called LHT-18 (hIgG1)
binding result (mouse latent TGF-β1): no binding (tested: six concentrations, 3 nM to 100 nM)
